Source: US20260317443 (published 2026)
Changes are numbered by the printed parent chain.

B1: 25B05_H4-L2 (antibody, V domains shown)
VH: EVQLVQSGAEVKKPGASVKVSCKASGYTFTDYFMNWVRQAPGQRLEWMGVINPHNGGTSYSQKFQGRVTLTVDKSSSTAYMELSSLRSEDTAVYYCARRPLGSDYWGQGTTVTVSS
VL: DIVMTQSPSSVSASVGDRVTITCKASQNVGTAVAWYQQKPGKAPKLLIYSASSRYTGVPSRFSGSGSGTDFTLTISSLQPEDFATYYCQQYSSYPLTFGQGTKLEIK
B2: 25B05_H4-L4 (antibody, V domains shown)
VH: B1 VH
VL: B1 VL with G57E, S60D
B3: 25B05_H2-L4 (antibody, V domains shown)
VH: B1 VH with E1Q, L70I
VL: B1 VL with G57E, S60D
B4: 25B05_H3-L3 (antibody, V domains shown)
VH: B1 VH with L70I
VL: B1 VL with V3Q, G57E, S60D
B5: 25B05_H3-L2 (antibody, V domains shown)
VH: B1 VH with L70I
VL: B1 VL
B6: 25B05_H2-L1 (antibody, V domains shown)
VH: B1 VH with E1Q, L70I
VL: B1 VL with V3Q
B7: 25B05_H1-L3 (antibody, V domains shown)
VH: B1 VH with E1Q, L70I, V72R, K74T, S76A
VL: B1 VL with V3Q, G57E, S60D
B8: 25B05_H4-L3 (antibody, V domains shown)
VH: B1 VH
VL: B1 VL with V3Q, G57E, S60D
B9: 25B05_H2-L2 (antibody, V domains shown)
VH: B1 VH with E1Q, L70I
VL: B1 VL
B10: 25B05_H3-L1 (antibody, V domains shown)
VH: B1 VH with L70I
VL: B1 VL with V3Q
B11: 25B05_H2-L3 (antibody, V domains shown)
VH: B1 VH with E1Q, L70I
VL: B1 VL with V3Q, G57E, S60D
B12: 25B05_H4-L1 (antibody, V domains shown)
VH: B1 VH
VL: B1 VL with V3Q
B13: 25B05_H3-L4 (antibody, V domains shown)
VH: B1 VH with L70I
VL: B1 VL with G57E, S60D
B14: 33D03_H3-L3 (antibody, V domains shown)
VH: QVQLVQSGAEVKKPGASVKVSCKASGYTFTDYYLNWVRQAPGQRLEWMGIINPYNGGTNYSQKFQGRVTITVDKSSSTAYMELSSLRSEDTAVYYCASEGLRTWFTYWGQGTLVTVSS
VL: DIVMTQSPDSLAVSLGERATINCKSSQSLSNSGNQKIYLAWYQQKPGQPPKLLIYGASSRESGVPDRFSGSGSEIDFTLTISSLQAEDVAVYYCQNDHSHPFTFGQGTKLEIK
B15: 33D03_H2-L1 (antibody, V domains shown)
VH: B14 VH with S61N, K63R, Q65K, V72R, K74T, S76A
VL: B14 VL with E74G, I75T
B16: 33D03_H4-L3 (antibody, V domains shown)
VH: B14 VH with S61N, K63R, Q65K
VL: B14 VL
B17: 33D03_H4-L2 (antibody, V domains shown)
VH: B14 VH with S61N, K63R, Q65K
VL: B14 VL with N22S, E74G, I75T
B18: 33D03_H2-L2 (antibody, V domains shown)
VH: B14 VH with S61N, K63R, Q65K, V72R, K74T, S76A
VL: B14 VL with N22S, E74G, I75T
B19: 33D03_H5-L1 (antibody, V domains shown)
VH: B14 VH with Q1E, S61N, K63R, Q65K, I70L
VL: B14 VL with E74G, I75T
B20: 33D03_H4-L4 (antibody, V domains shown)
VH: B14 VH with S61N, K63R, Q65K
VL: B14 VL with N22S
B21: 33D03_H5-L3 (antibody, V domains shown)
VH: B14 VH with Q1E, S61N, K63R, Q65K, I70L
VL: B14 VL
B22: 33D03_H1-L1 (antibody, V domains shown)
VH: B14 VH with V72R, K74T, S76A
VL: B14 VL with E74G, I75T
B23: 33D03_H4-L1 (antibody, V domains shown)
VH: B14 VH with S61N, K63R, Q65K
VL: B14 VL with E74G, I75T
B24: 33D03_H3-L4 (antibody, V domains shown)
VH: B14 VH
VL: B14 VL with N22S
B25: 33D03_H5-L4 (antibody, V domains shown)
VH: B14 VH with Q1E, S61N, K63R, Q65K, I70L
VL: B14 VL with N22S
B26: 33D03_H2-L3 (antibody, V domains shown)
VH: B14 VH with S61N, K63R, Q65K, V72R, K74T, S76A
VL: B14 VL
B27: 33D03_H3-L2 (antibody, V domains shown)
VH: B14 VH
VL: B14 VL with N22S, E74G, I75T
B28: 33D03_H1-L2 (antibody, V domains shown)
VH: B14 VH with V72R, K74T, S76A
VL: B14 VL with N22S, E74G, I75T
B29: 33D03_H1-L3 (antibody, V domains shown)
VH: B14 VH with V72R, K74T, S76A
VL: B14 VL
B30: 33D03_H2-L4 (antibody, V domains shown)
VH: B14 VH with S61N, K63R, Q65K, V72R, K74T, S76A
VL: B14 VL with N22S
B31: 33D03_par (antibody, V domains shown)
VH: EVQLQQSRPVLVKPGASVKMSCKASGYTFTDYYLNWVKQSPGKRLEWIGIINPYNGGTNYNQRFKGKATLTVDKSSSTAYMELNSLTSEDSAVYFCASEGLRTWFTYWGQGTLVTVSA
VL: DIVMTQSPSSLSVSAGEKVTMSCKSSQSLSNSGNQKIYLAWYQQKPGQPPKLLIYGASSRESGVPDRFTGSGSEIDFTLTISSVQAEDLAVYYCQNDHSHPFTFGSGTKLEIK

Each binder was assayed against human VWF (human) (assay: ELISA).
Sequence of human VWF (human) (P04275 whole entry): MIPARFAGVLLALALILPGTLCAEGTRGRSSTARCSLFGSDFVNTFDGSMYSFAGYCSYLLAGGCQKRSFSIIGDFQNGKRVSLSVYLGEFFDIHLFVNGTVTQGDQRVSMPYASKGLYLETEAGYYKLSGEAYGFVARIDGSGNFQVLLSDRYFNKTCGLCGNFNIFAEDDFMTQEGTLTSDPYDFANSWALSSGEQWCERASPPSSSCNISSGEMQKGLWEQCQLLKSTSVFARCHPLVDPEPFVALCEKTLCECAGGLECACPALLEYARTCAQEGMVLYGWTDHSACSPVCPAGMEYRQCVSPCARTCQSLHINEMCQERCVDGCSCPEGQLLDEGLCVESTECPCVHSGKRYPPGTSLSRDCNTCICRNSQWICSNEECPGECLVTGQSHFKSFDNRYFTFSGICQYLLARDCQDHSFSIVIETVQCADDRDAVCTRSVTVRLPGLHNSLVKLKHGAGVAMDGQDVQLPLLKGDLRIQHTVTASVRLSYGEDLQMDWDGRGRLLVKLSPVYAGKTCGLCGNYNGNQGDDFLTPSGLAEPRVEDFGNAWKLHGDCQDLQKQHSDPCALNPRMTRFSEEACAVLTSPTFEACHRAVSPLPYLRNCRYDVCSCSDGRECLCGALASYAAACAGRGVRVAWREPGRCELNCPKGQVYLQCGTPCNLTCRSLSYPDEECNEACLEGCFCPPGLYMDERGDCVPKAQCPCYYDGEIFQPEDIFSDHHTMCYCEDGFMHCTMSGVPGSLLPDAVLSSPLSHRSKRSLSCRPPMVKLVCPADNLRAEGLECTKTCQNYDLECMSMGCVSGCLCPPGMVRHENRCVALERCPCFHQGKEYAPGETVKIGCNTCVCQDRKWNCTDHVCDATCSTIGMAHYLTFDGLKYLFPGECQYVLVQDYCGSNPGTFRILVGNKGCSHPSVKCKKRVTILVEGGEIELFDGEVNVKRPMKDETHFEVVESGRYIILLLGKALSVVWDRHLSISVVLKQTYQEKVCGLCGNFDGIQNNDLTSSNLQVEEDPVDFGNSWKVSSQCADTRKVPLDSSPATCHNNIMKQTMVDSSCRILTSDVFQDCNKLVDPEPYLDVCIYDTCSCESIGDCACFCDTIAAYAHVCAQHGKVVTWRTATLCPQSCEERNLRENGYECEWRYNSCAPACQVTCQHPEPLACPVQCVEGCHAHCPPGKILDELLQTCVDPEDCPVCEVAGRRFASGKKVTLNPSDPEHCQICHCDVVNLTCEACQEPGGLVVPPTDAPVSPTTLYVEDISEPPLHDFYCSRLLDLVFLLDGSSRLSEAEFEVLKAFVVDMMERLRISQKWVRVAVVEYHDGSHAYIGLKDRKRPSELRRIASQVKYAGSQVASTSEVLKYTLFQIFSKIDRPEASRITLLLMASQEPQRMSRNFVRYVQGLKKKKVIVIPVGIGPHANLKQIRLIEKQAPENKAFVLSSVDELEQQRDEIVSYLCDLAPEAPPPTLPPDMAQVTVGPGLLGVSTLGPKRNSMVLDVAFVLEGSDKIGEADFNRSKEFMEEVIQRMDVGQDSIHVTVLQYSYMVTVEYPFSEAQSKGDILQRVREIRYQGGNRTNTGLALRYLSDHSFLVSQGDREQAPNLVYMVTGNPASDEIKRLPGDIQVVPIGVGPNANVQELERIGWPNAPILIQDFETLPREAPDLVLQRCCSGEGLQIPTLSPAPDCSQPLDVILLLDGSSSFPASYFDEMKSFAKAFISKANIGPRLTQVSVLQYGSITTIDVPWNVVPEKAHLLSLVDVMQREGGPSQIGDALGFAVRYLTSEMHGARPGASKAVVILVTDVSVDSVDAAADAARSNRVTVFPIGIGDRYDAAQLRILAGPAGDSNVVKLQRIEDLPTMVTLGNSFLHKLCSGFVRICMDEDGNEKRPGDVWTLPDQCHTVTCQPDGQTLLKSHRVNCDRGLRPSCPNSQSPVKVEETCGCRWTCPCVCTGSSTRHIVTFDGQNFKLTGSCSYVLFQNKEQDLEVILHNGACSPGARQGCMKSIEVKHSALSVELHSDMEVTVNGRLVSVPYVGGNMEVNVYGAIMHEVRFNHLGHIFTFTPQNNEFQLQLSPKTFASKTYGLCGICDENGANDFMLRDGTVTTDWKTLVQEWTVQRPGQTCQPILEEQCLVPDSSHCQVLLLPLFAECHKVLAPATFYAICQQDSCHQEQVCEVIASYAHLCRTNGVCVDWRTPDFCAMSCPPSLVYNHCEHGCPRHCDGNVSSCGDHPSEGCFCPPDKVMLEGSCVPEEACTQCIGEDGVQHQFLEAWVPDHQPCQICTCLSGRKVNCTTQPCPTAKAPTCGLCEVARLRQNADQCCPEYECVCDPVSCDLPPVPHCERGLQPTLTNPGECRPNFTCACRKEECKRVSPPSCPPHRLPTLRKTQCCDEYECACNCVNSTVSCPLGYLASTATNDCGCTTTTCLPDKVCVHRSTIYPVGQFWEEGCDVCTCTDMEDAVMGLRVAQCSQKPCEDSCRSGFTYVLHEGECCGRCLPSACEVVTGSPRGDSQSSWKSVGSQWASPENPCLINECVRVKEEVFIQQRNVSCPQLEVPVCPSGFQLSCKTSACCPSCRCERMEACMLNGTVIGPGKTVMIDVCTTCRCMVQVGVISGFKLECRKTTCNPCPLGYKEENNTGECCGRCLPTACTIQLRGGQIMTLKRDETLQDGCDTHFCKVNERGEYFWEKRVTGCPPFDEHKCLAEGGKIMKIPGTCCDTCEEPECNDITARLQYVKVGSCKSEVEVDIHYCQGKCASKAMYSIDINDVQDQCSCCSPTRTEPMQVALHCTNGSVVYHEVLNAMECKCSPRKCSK

Point of comparison: B18, EC50 0.0394 µg/mL. Against it:
- B1 — within 1.5-fold, 0.0357 µg/mL
- B2 — within 1.5-fold, 0.0264 µg/mL
- B3 — within 1.5-fold, 0.0312 µg/mL
- B4 — within 1.5-fold, 0.0434 µg/mL
- B5 — within 1.5-fold, 0.0516 µg/mL
- B6 — 1.6-fold higher, 0.0612 µg/mL
- B7 — within 1.5-fold, 0.0335 µg/mL
- B8 — within 1.5-fold, 0.0271 µg/mL
- B9 — within 1.5-fold, 0.0564 µg/mL
- B10 — 1.5-fold higher, 0.0594 µg/mL
- B11 — within 1.5-fold, 0.0416 µg/mL
- B12 — within 1.5-fold, 0.0385 µg/mL
- B13 — within 1.5-fold, 0.0379 µg/mL
- B14 — within 1.5-fold, 0.0483 µg/mL
- B15 — within 1.5-fold, 0.0373 µg/mL
- B16 — within 1.5-fold, 0.0371 µg/mL
- B17 — within 1.5-fold, 0.0354 µg/mL
- B19 — within 1.5-fold, 0.0297 µg/mL
- B20 — within 1.5-fold, 0.0365 µg/mL
- B21 — within 1.5-fold, 0.0335 µg/mL
- B22 — within 1.5-fold, 0.0437 µg/mL
- B23 — within 1.5-fold, 0.0381 µg/mL
- B24 — within 1.5-fold, 0.0434 µg/mL
- B25 — within 1.5-fold, 0.0365 µg/mL
- B26 — within 1.5-fold, 0.0371 µg/mL
- B27 — within 1.5-fold, 0.0457 µg/mL
- B28 — within 1.5-fold, 0.0453 µg/mL
- B29 — 1.5-fold higher, 0.0597 µg/mL
- B30 — within 1.5-fold, 0.0381 µg/mL
- B31 — within 1.5-fold, 0.0498 µg/mL
